Results published in publication PMC11220700, “Activation and Purification of ß‐Glucocerebrosidase by Exploiting its Transporter LIMP‐2 – Implications for Novel Treatment Strategies in Gaucher's and Parkinson's Disease” (Advanced Science, 2024).

Key:
[1] = system: GCase variants in HEK 293T cell lysates; test: GCase activity in cell lysates of cells overexpressing GCase variants; type: cell-based, human; conditions: 4MU; for GCase activity compared with mock: cell lysates, N370S n = 3, L444P n = 5
Method: (§1) HEK 293T cells (Leibniz Institute DSMZ‐German Collection of Microorganism and Cell Cultures GmbH, Braunschweig, Germany) were cultured on TC dishes (Sarstedt, Nümbrecht, Germany, #83.3902, #83.3903) in Dulbecco's modified eagle medium (DMEM, Gibco, Carlsbad, CA, United States) supplemented with 10% fetal calf serum (FCS, PANbiotech, Aidenbach, Germany) and 1× penicillin/streptomycin (Sigma‐Aldrich, St. Louis, MO, United States, #P0781) at 37 °C, 5% CO2 and 95% humidity. Passaging was done at 70–90% confluence by detaching with trypsin (PAN‐Biotech, Aidenbach, Germany, #P10‐023100) for 5 min and transferring part of the culture to a new dish containing fresh medium. The HEK 293T cells were transfected using PEI at 60–70% confluence. For a 10 cm TC dish, the transfection mix was prepared by adding 5 µg plasmid DNA, 15 µg of PEI (ratio of 1:3 DNA to PEI) to 300 µl DMEM without FCS. After incubation for 25 min at room temperature, the mix was added to the cells. If the cell supernatant was analyzed, the cells were washed twice with phosphate‐buffered saline (PBS, Gibco, Carlsbad, CA, United States) and the medium was changed to DMEM without FCS 16 h after transfection.
Harvested cells were washed three times with cold PBS and pelleted (1.000 × g, 3 min, 4 °C). […] Protein concentrations were determined using Pierce BCA Protein Assay Kit (ThermoFisher Scientific Inc., Waltham, MA, United States, #23 227).
Activity of GCase‐containing samples (recombinant protein, cell lysate, LE fractions, conditioned culture medium) was measured using the synthetic substrate 4‐methylumbelliferyl‐β‐D‐glucopyranoside (4MU, Merck Millipore, Billerica, MA, United States, #M3633). […] GCase activity was quantified via fluorescence of released 4‐methylumbelliferone (endpoint measurement) using an Infinite 200 Pro (TECAN, Männedorf, Switzerland), SpectraMax Gemini (Molecular Devices, San José, CA, United States) or ClarioStar (BMG LABTECH, Ortenberg, Germany) multiplate reader (λ ex: 365 nm; λ em: 445 nm). […]

GCase variants = conditions: cited from earlier work
From the text: The link between GCase and PD was first established when studies found an increased prevalence of PD in GD patients and their relatives.^[ [14], [15], [16] ^] […] All three variants are characterized by compromised stability and/or enzyme activity. The L444P variant ...

[2] = system: GCase variants in HEK 293T cells; test: GCase activity in LE fractions after co‐expression of GCase variants with FL‐LIMP‐2; type: cell-based, human; conditions: versus FL‐LIMP‐2‐3xD
Method: as §1
Activity of GCase‐containing samples (recombinant protein, cell lysate, LE fractions, conditioned culture medium) was measured using the synthetic substrate 4‐methylumbelliferyl‐β‐D‐glucopyranoside (4MU, Merck Millipore, Billerica, MA, United States, #M3633). […] of the sample (cell supernatant, SEC fractions) or 2.5 µg of total protein from whole‐cell lysates were added to the well of a black 96‐well Maxisorp plate (ThermoFisher Scientific Inc., Waltham, MA, United States, #437 111). The reaction volume was then increased to 100 µL with GCase activity buffer (see paragraph “Cell Lysis”) and a final concentration of 1 µM of 4MU substrate was added. After incubation at 37 °C for 30 min, the reaction was stopped by adding 100 µL of stop solution (0.1 M glycine, pH 10.4). GCase activity was quantified via fluorescence of released 4‐methylumbelliferone (endpoint measurement) using an Infinite 200 Pro (TECAN, Männedorf, Switzerland), SpectraMax Gemini (Molecular Devices, San José, CA, United States) or ClarioStar (BMG LABTECH, Ortenberg, Germany) multiplate reader (λ ex: 365 nm; λ em: 445 nm).
For evaluation, all data sets obtained for GCase enzymatic activity were baseline‐corrected and normalized to the overall signal (either total signal or average of controls) within each replicate experiment to correct for signal differences between different measurement devices and replicate measurements.

[3] = system: GCase variants in HEK 293T cells; test: Western blot of GCase in LE fractions after co‐expression with FL‐LIMP‐2; type: cell-based, human; conditions: versus FL‐LIMP‐2‐3xD
Method: SDS PAGE was performed using a Tris‐glycine buffer system (resolving buffer: ThermoFisher Scientific Inc., Waltham, MA, United States, #HC2215; stacking buffer: ThermoFisher Scientific Inc., Waltham, MA, United States, #HC2115; running buffer: 25 mM Tris, 192 mM glycine, […]). All samples were prepared by adding 5× Laemmli buffer (0.3 M Tris‐HCl, pH 6.8, 10% w/v SDS, 50% v/v glycerol, 5% v/v β‐mercaptoethanol, 5% w/v bromophenol blue) to the samples in a 1:5 ratio and heating the samples for 5 min at 95 °C. The samples were then separated over a 10% polyacrylamide gel. After SDS PAGE, wet blotting was performed to transfer the proteins onto a PVDF membrane (Merck Millipore, Billerica, MA, United States, #IPFL00010). […] After incubation, membranes were washed three times with TBS‐T (TBS + 0.1% v/v TWEEN‐20) before incubation with secondary antibodies for 2 h at RT followed by three more washing steps with TBS‐T. The fluorescence‐based acquisition was done using an Odyssey (LI‐COR Biosciences, Lincoln, NE, United States) or IBright (ThermoFisher Scientific Inc., Waltham, MA, United States) imaging system. […]
Quantification of western blot data was performed in ImageStudioLite 5.2 (LI‐COR Biosciences, Lincoln, NE, United States). […]

B1: E326K: PD‐associated GCase variant (protein)
chain: ARPCIPKSFGYSSVVCVCNATYCDSFDPPTFPALGTFSRYESTRSGRRMELSMGPIQANHTGTGLLLTLQPEQKFQKVKGFGGAMTDAAALNILALSPPAQNLLLKSYFSEEGIGYNIIRVPMASCDFSIRTYTYADTPDDFQLHNFSLPEEDTKLKIPLIHRALQLAQRPVSLLASPWTSPTWLKTNGAVNGKGSLKGQPGDIYHQTWARYFVKFLDAYAEHKLQFWAVTAENEPSAGLLSGYPFQCLGFTPEHQRDFIARDLGPTLANSTHHNVRLLMLDDQRLLLPHWAKVVLTDPEAAKYVHGIAVHWYLDFLAPAKATLGKTHRLFPNTMLFASEACVGSKFWEQSVRLGSWDRGMQYSHSIITNLLYHVVGWTDWNLALNPEGGPNWVRNFVDSPIIVDITKDTFYKQPMFYHLGHFSKFIPEGSQRVGLVASQKNDLDAVALMHPDGSAVVVVLNRSSKDVPLTIKDPAVGFLETISPGYSIHTYLWRRQ
[1]; HEK 293T cell lysates, versus wt, n = 5, mean ± SEM
  residual activity of GCase variant: 40.0 ± 2.2%
GCase variants
  residual activity of GCase variant (literature): ≈ 40%

B2: N370S: disease‐associated GCase variant (protein)
chain: ARPCIPKSFGYSSVVCVCNATYCDSFDPPTFPALGTFSRYESTRSGRRMELSMGPIQANHTGTGLLLTLQPEQKFQKVKGFGGAMTDAAALNILALSPPAQNLLLKSYFSEEGIGYNIIRVPMASCDFSIRTYTYADTPDDFQLHNFSLPEEDTKLKIPLIHRALQLAQRPVSLLASPWTSPTWLKTNGAVNGKGSLKGQPGDIYHQTWARYFVKFLDAYAEHKLQFWAVTAENEPSAGLLSGYPFQCLGFTPEHQRDFIARDLGPTLANSTHHNVRLLMLDDQRLLLPHWAKVVLTDPEAAKYVHGIAVHWYLDFLAPAKATLGETHRLFPNTMLFASEACVGSKFWEQSVRLGSWDRGMQYSHSIITSLLYHVVGWTDWNLALNPEGGPNWVRNFVDSPIIVDITKDTFYKQPMFYHLGHFSKFIPEGSQRVGLVASQKNDLDAVALMHPDGSAVVVVLNRSSKDVPLTIKDPAVGFLETISPGYSIHTYLWRRQ
[1]
  GCase activity compared with mock: do not differ significantly from the mock
GCase variants
  stability and activity of GCase variant (literature): stable with low residual activity

B3: L444P: disease‐associated GCase variant (protein)
chain: ARPCIPKSFGYSSVVCVCNATYCDSFDPPTFPALGTFSRYESTRSGRRMELSMGPIQANHTGTGLLLTLQPEQKFQKVKGFGGAMTDAAALNILALSPPAQNLLLKSYFSEEGIGYNIIRVPMASCDFSIRTYTYADTPDDFQLHNFSLPEEDTKLKIPLIHRALQLAQRPVSLLASPWTSPTWLKTNGAVNGKGSLKGQPGDIYHQTWARYFVKFLDAYAEHKLQFWAVTAENEPSAGLLSGYPFQCLGFTPEHQRDFIARDLGPTLANSTHHNVRLLMLDDQRLLLPHWAKVVLTDPEAAKYVHGIAVHWYLDFLAPAKATLGETHRLFPNTMLFASEACVGSKFWEQSVRLGSWDRGMQYSHSIITNLLYHVVGWTDWNLALNPEGGPNWVRNFVDSPIIVDITKDTFYKQPMFYHLGHFSKFIPEGSQRVGLVASQKNDPDAVALMHPDGSAVVVVLNRSSKDVPLTIKDPAVGFLETISPGYSIHTYLWRRQ
[1]
  GCase activity compared with mock: do not differ significantly from the mock
GCase variants
  stability and activity of GCase variant (literature): impaired stability and highly impaired activity

B4: FL‐LIMP‐2: full‐length, membrane‐anchored wt LIMP‐2 (protein, UniProt Q14108 1-478, looked up)
chain: MGRCCFYTAGTLSLLLLVTSVTLLVARVFQKAVDQSIEKKIVLRNGTEAFDSWEKPPLPVYTQFYFFNVTNPEEILRGETPRVEEVGPYTYRELRNKANIQFGDNGTTISAVSNKAYVFERDQSVGDPKIDLIRTLNIPVLTVIEWSQVHFLREIIEAMLKAYQQKLFVTHTVDELLWGYKDEILSLIHVFRPDISPYFGLFYEKNGTNDGDYVFLTGEDSYLNFTKIVEWNGKTSLDWWITDKCNMINGTDGDSFHPLITKDEVLYVFPSDFCRSVYITFSDYESVQGLPAFRYKVPAEILANTSDNAGFCIPEGNCLGSGVLNVSICKNGAPIIMSFPHFYQADERFVSAIEGMHPNQEDHETFVDINPLTGIILKAAKRFQINIYVKKLDDFVETGDIRTMVFPVMYLNESVHIDKETASRLKSMINTTLIITNIPYIIMALGVFFGLVFTWLACKGQGSMDEGTADERAPLIRT
modifications: full-length
[2]; co‐expression with GCase E326K
  GCase activity in LE fractions, E326K: significant increases
[2]; co‐expression with GCase L444P
  GCase transport and activity, L444P: both transport and activity could not be rescued by LIMP‐2
[2]; co‐expression with GCase N370S
  GCase activity in LE fractions, N370S: no increase in enzymatic activity could be determined
[2]; co‐expression with GCase wt
  GCase activity in LE fractions, wt: significant increases
[3]
  lysosomal GCase levels of wt, E326K and N370S: exceeded those of the FL‐LIMP‐2‐3xD control
